Measurements: publication PMC8484605, “A complex of BRCA2 and PP2A-B56 is required for DNA repair by homologous recombination” (Nature Communications, 2021)
Square brackets hold non-standard residues; d marks the D form. Ends that are not written are not given here. pT = C[C@@H](OP(=O)(O)O)[C@H](N)C(=O)O; pS = N[C@@H](COP(=O)(O)O)C(=O)O

B1: BRCA2 1113-1129 pT1128 peptide (peptide)
peptide: WELSTILEESGSQFEF[pT]Q
notes: tryptophan at the N-terminus, outside the stated BRCA2 limits; human BRCA2, residues 1113-1129, T1128 phosphorylated; source: synthetic peptide (Peptide 2.0 Inc.)
B2: BRCA2 1113-1129 pS1123, pT1128 peptide (peptide)
peptide: WELSTILEESG[pS]QFEF[pT]Q
notes: tryptophan at the N-terminus, outside the stated BRCA2 limits; human BRCA2, residues 1113-1129, S1123 and T1128 phosphorylated; also called double phosphorylated peptide; source: synthetic peptide (Peptide 2.0 Inc.)
B3: BRCA2 1113-1129 pS1123 peptide (peptide)
peptide: WELSTILEESG[pS]QFEFTQ
notes: tryptophan at the N-terminus, outside the stated BRCA2 limits; human BRCA2, residues 1113-1129, S1123 phosphorylated; source: synthetic peptide (Peptide 2.0 Inc.)
B4: BRCA2 1105-1129 peptide (peptide)
peptide: PSQKAEITELSTILEESGSQFEFTQW
notes: human BRCA2, residues 1105-1129; tryptophan at the C-terminus, outside the stated BRCA2 limits; also called BRCA2^1105-1129 WT; source: synthetic peptide (Peptide 2.0 Inc.)
B5: BRCA2 1105-1129 T1116P peptide (peptide)
peptide: PSQKAEITELSPILEESGSQFEFTQW
notes: human BRCA2, residues 1105-1129 with the missense variant T1116P reported in individuals (ClinVar); tryptophan at the C-terminus, outside the stated BRCA2 limits; also called c.3346 A > C; source: synthetic peptide (Peptide 2.0 Inc.)
B6: BRCA2 1105-1129 T1128I peptide (peptide)
peptide: PSQKAEITELSTILEESGSQFEFIQW
notes: human BRCA2, residues 1105-1129 with the missense variant T1128I reported in individuals (ClinVar); tryptophan at the C-terminus, outside the stated BRCA2 limits; also called c.3383 C > T; source: synthetic peptide (Peptide 2.0 Inc.)
B7: BRCA2 1105-1129 S1106R peptide (peptide)
peptide: PRQKAEITELSTILEESGSQFEFTQW
notes: human BRCA2, residues 1105-1129 with the missense variant S1106R reported in individuals (ClinVar); tryptophan at the C-terminus, outside the stated BRCA2 limits; also called c.3318 C > G; source: synthetic peptide (Peptide 2.0 Inc.)
B8: BRCA2 1108-1126 peptide (peptide)
peptide: WKAEITELSTILEESGSQFE
notes: tryptophan at the N-terminus, outside the stated BRCA2 limits; human BRCA2, residues 1108-1126 with the LxxIxE motif; The added W probably serves the A280 concentration measurement; also called BRCA2^1108-1126 WT; source: synthetic peptide (Peptide 2.0 Inc.)
B9: BRCA2 1105-1129 3DQ peptide (peptide)
peptide: PDQKAEITELSTILEESGDQFEFDQW
notes: human BRCA2, residues 1105-1129 with the three SQ/TQ sites changed to DQ (phosphomimetic); tryptophan at the C-terminus, outside the stated BRCA2 limits; source: synthetic peptide (Peptide 2.0 Inc.)
B10: BRCA2 1113-1129 peptide (peptide)
peptide: WELSTILEESGSQFEFTQ
notes: tryptophan at the N-terminus, outside the stated BRCA2 limits; human BRCA2, residues 1113-1129; source: synthetic peptide (Peptide 2.0 Inc.)

Tests used:
B56α [1] = molecular target: T1, B56α (Homo sapiens, UniProt Q15172); test: Isothermal titration calorimetry (ITC) of BRCA2 peptides binding to B56α; set-up: His; made in house; host or cells: E. coli BL21 Rosetta2 (DE3) R3 T1; details: ITC at 25 °C; 50 mM sodium phosphate pH 7.5, 150 mM NaCl, 0.5 mM TCEP; peptide titrated into B56α; single-site model; error = standard error of the fitting; performed once
T1 sequence (Q15172 whole entry): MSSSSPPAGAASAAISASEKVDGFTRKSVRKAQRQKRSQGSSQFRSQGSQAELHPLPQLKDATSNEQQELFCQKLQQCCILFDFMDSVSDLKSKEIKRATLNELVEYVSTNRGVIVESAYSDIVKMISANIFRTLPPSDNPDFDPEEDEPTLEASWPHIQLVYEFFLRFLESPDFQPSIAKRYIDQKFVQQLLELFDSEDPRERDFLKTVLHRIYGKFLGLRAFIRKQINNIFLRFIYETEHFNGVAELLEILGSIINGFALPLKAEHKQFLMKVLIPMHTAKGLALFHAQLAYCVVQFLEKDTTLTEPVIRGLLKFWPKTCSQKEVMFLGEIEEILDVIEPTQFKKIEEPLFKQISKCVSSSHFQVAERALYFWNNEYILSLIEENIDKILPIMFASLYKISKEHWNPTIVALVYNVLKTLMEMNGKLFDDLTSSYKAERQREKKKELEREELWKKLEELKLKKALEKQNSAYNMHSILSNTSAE
Procedure: Both recombinant B56α and synthetic BRCA2 peptides were extensively dialyzed prior to ITC experiments against the ITC buffer (50 mM sodium phosphate pH 7.5, 150 mM NaCl, 0.5 mM TCEP). All experiments were performed on a MicroCal Auto-iTC200 (Malvern Panalytical) instrument at 25 °C (Auto-iTC200 version 1.1.1.0, iTC200 version 1.26.4, Origin version 7.0552 SR4). Both peptide and B56α concentrations were determined using a spectrophotometer by measuring the absorbance at 280 nm and applying values for the extinction coefficients as computed from the corresponding sequences by the ProtParam program (http://web.expasy.org/protparam/). The BRCA2 peptides were loaded into the syringe and titrated into the calorimetric cell containing B56α. The reference cell was filled with distilled water. Control experiments with the peptides injected in the sample cell filled with buffer were carried out under the same experimental conditions. […] The titration sequence consisted of a single 0.4 μl injection followed by 19 injections, 2 μl each, with 150 s spacing between injections to ensure that the thermal power returns to the baseline before the next injection. The stirring speed was 750 rpm. […] Data were analysed with MicroCal PEAQ-ITC analysis software (version 1.1.0.1262., Malvern Panalytical).

B56α [2] = molecular target: T1, B56α; test: isothermal titration calorimetry; details: reference: unphosphorylated peptide
U2OS Flp-In T-REx cells [3] = test: Colony formation assay: Olaparib sensitivity; type: cell-based, human
Procedure: (§1) For transient protein expression, cells were transfected with Lipofectamine 2000 (Invitrogen) and the plasmid of interest and incubated for 48 h unless otherwise stated. For BRCA2 knockdown, cells were transfected twice with 10 nM Silencer Select BRCA2 s2084 siRNA and 10 nM Silencer Select BRCA2 s2085 siRNA (Ambion) using Lipofectamine RNAiMAX (Invitrogen) 24 and 48 h before the experiment. A luciferase oligo ([NT], Sigma) was used for control (Ctrl). U2OS Flp-In T-REx parental cells or stably expressing siRNA-resistant venus-MBP-BRCA2 constructs were transfected with Ctrl or BRCA2 siRNA as described above. […] Reseeding was performed by trypsinizing the cells, dissolving into growth medium, and counting the number of cells using the Scepter Cell Counter (Merck), followed by seeding a known number of cells into six-well plates containing growth medium. After 11 days, the cells were fixed and stained in 0.5% methylviolet, 25% methanol. The plates were scanned on a GelCount (Oxford Optronix), and the number of colonies were quantified using the GelCount software (version 1.3.04). The plating efficiency (%) for each well was calculated as the number of colonies divided by the number of cells seeded times 100. The surviving fraction for each dose of drug was calculated by normalizing the plating efficiency to that of the unperturbed condition. The plating efficiency data of Figs. 2, 3, and Supplementary Fig. 3 is derived from the unperturbed condition of the MMC sensitivity dataset, and the plating efficiency data of Fig. 4 is derived from the unperturbed condition of the Olaparib sensitivity dataset. Graphs were constructed in PRISM, and one-way ANOVA analyses with Dunnett's multiple comparison tests were performed comparing the mean of each condition to the siBRCA2 + WT condition. Exact p values are provided in the source data.

U2OS Flp-In T-REx cells [4] = test: Colony formation assay: CPT sensitivity; type: cell-based, human
Procedure: as §1, with “The plating efficiency data of Figs. 2, 3, and Supplementary Fig. 3 is derived from the unperturbed condition of the MMC sensitivity dataset, and the plating efficiency data of Fig. 4 is derived from the unperturbed condition of the Olaparib sensitivity dataset. Graphs were constructed in PRISM, and one-way ANOVA analyses with Dunnett's multiple comparison tests were performed comparing the mean of each condition to the siBRCA2 + WT condition. Exact p values are provided in the source data.” left out

[5] = system: BRCA2 pT1104/pS1106 and pT1128; test: Western blot of BRCA2 phosphorylation in BRCA2 immunoprecipitates; type: cell-based, human; details: U2OS Flp-In T-REx, S-phase, released 1 h, 2 μM CPT for 1 h
Procedure: For immunoprecipitations of endogenous BRCA2, U2OS Flp-In T-REx cells were synchronized to S-phase as described above, released for 1 h, and treated for 1 h with 2 μM CPT in presence or absence of 25 μM KU55933 (ATM kinase inhibitor) and 5 μM AZ20 (ATR kinase inhibitor). Cells were lysed in RIPA buffer, and proteins were immunoprecipitated on BRCA2 antibody-conjugated (Millipore Cat# OP95, RRID:AB_2067762) Rec-protein G Sepharose 4B beads (Invitrogen) for 1 h at 4 °C and washed in RIPA buffer prior to elution.
All buffers were supplemented with 1 mM DTT, Complete protease inhibitor cocktail (Roche), and PhosSTOP phosphatase inhibitor cocktail (Roche). For λ phosphatase treatment experiments, immunoprecipitants on beads were washed in buffer without phosphatase inhibitor and incubated with λ phosphatase (Sigma–Aldrich) in the applied buffer for 20 min at 30 °C before elution. Immunoprecipitants were eluted in 2× NuPage LDS sample buffer (Invitrogen). Whole-cell extracts and immunoprecipitations were analyzed by SDS-PAGE and western blotting or mass spectrometry analysis. For western blotting, samples were boiled for 5 min in NuPage LDS sample buffer and run on NuPage Bis-Tris 4–12% protein gels (Invitrogen), and proteins were transferred to PVDF membranes (Immobilon-FL, Merck). […] Quantification of western blots were carried out in ImageStudioLite (version 5.2.5., LI-COR). […]

U2OS Flp-In T-REx cells [6] = test: Colony formation assay: MMC sensitivity; type: cell-based, human
Procedure: For transient protein expression, cells were transfected with Lipofectamine 2000 (Invitrogen) and the plasmid of interest and incubated for 48 h unless otherwise stated. For BRCA2 knockdown, cells were transfected twice with 10 nM Silencer Select BRCA2 s2084 siRNA and 10 nM Silencer Select BRCA2 s2085 siRNA (Ambion) using Lipofectamine RNAiMAX (Invitrogen) 24 and 48 h before the experiment. A luciferase oligo (5′-[sequence]dTdT-3′, Sigma) was used for control (Ctrl).
U2OS Flp-In T-REx parental cells or stably expressing siRNA-resistant venus-MBP-BRCA2 constructs were transfected with Ctrl or BRCA2 siRNA as described above. Then, cells were either treated with 0, 3, or 10 ng/mL Mitomycin C for 24 h followed by reseeding into normal growth medium or reseeded directly and either treated for 24 h with 0, 5, or 15 nM CPT or continuously maintained in medium containing 0, 5.6, 16.7, or 50 nM Olaparib. […] The plates were scanned on a GelCount (Oxford Optronix), and the number of colonies were quantified using the GelCount software (version 1.3.04). The plating efficiency (%) for each well was calculated as the number of colonies divided by the number of cells seeded times 100. The surviving fraction for each dose of drug was calculated by normalizing the plating efficiency to that of the unperturbed condition. […]

His-tagged B56α = molecular target: T2, His-tagged B56α (UniProt Q15172 1-486); test: ITC; BRCA2 peptide in the syringe titrated into B56α in the cell; 25 °C; 50 mM sodium phosphate pH 7.5, 150 mM NaCl, 0.5 mM TCEP; single-site model; details: both partners purified
T2 construct: source: E. coli BL21 Rosetta2 (DE3) R3 T1, purified (Ni column, Superdex 200)
T2 sequence (Q15172 whole entry): as above

[7] = BRCA2 depletion (siBRCA2) vs siCtrl
[8] = cells expressing BRCA2 3AQ compared to BRCA2 WT

Molecule	Kd (His-tagged B56α)	stoichiometry N (His-tagged B56α)	also measured
WKAEITEASTALEESGSQFE [BRCA2^1108-1126 2A, synthetic BRCA2 peptide 1108-1126 with L1114A-I1117A]	–	–	KD (B56α [1]): No binding
BRCA2 (from UniProt P51587) doubly phosphorylated pS1123/pT1128 peptide	–	–	fold change (B56α [2]; sites S1123,T1128): stronger
O=C(c1cc(Cc2n[nH]c(=O)c3ccccc23)ccc1F)N1CCN(C(=O)C2CC2)CC1 [Olaparib]	–	–	Olaparib sensitivity (U2OS Flp-In T-REx cells [3]; [7]): hypersensitivity; Olaparib sensitivity (U2OS Flp-In T-REx cells [3]; [8]): hypersensitivity; Olaparib sensitivity (U2OS Flp-In T-REx cells [3]; cells expressing BRCA2 S1106R, T1116P or T1128I compared to BRCA2 WT): mild sensitivity
BRCA2 (from UniProt P51587) pT1128 peptide (printed once as S1128)	–	–	fold change (B56α [2]; sites T1128): stronger
CC[C@@]1(O)C(=O)OCc2c1cc1n(c2=O)Cc2cc3ccccc3nc2-1 [Camptothecin, camptothecin]	–	–	CPT sensitivity (U2OS Flp-In T-REx cells [4]; [7]): hypersensitivity; CPT sensitivity (U2OS Flp-In T-REx cells [4]; [8]): hypersensitivity; phosphorylation of BRCA2 T1104/S1106 and T1128 [5]: stimulated
BRCA2 (from UniProt P51587) pS1123 peptide	–	–	fold change (B56α [2]; sites S1123): stronger
CO[C@@]12[C@H](COC(N)=O)C3=C(C(=O)C(C)=C(N)C3=O)N1C[C@@H]1N[C@@H]12 [MMC, Mitomycin C]	–	–	MMC sensitivity (U2OS Flp-In T-REx cells [6]; [7]): hypersensitivity; MMC sensitivity (U2OS Flp-In T-REx cells [6]; cells expressing BRCA2 3AQ or 3DQ compared to BRCA2 WT): hypersensitivity
BRCA2 (from UniProt P51587) pS1106 peptide	–	–	binding against the reference (B56α [2]; sites S1106): weaker
B1	1.38 µM	0.94	–
B2	0.48 µM	0.91	–
B3	0.77 µM	0.92	–
B4	7.76 µM	0.99	–
B5	6.92 µM	0.85	–
B6	7.43 µM	1.01	–
B7	2.93 µM	0.95	–
B8	5.17 µM	1.02	–
B9	3.75 µM	0.86	–
B10	3.82 µM	1.01	–
